Measurements as given in paper PMC12120876.

Molecular target: nLUC‐TaWUS‐like‐5D (wheat (Triticum aestivum))
Assay: split reporter

luminescence signal, fold over the other three pairs of co-infiltration samples: 5 fold
Substance: SnRK1‐4B‐cLUC (natural protein)
